Data reported in publication PMC6385126.

Key:
[1] = system: His1 (position 1, -----HVD---); test: NMR; details: 25 °C; none stated (0.1% DSS as shift standard); Non-deuterated peptide, 1 mM, free in solution
[2] = system: His1 (position 1, -----HVD---); test: Raman; details: 22 °C; not stated (no added salt apart from NaOH/HCl used for pH adjustment); none stated; C2-deuterated peptide H(C2-D)VD, about 10 mM, free in solution

“HVD tripeptide (Ac-His-Val-Asp-NH2), N-terminal fragment of a hydrogel-forming semenogelin I peptide (synthetic; sequence derived from Homo sapiens semenogelin I)” was tested. Which pKa [1] did it give?
The pKa was 6.87 ± 0.03.

What about the pKa [2] of the same substance?
Its pKa is 6.82.
